Assay [1] has as its target T1, membranous CD4 (wild human CD4 expressed on cells) (human, UniProt P01730 26-458).
T1 construct: whole, on cells; also called T A2.01/CD4 cells; T AN2.01/CD4 cells
The experiment in a line: flow cytometry, T A2.01/CD4 cells, Fab at 1 µg/ml, fluorescein-labeled anti-kappa chain antibody. Here is the method: (§1) The binding of the wild or mutant Fabs to the membranous CD4 was evaluated by flow cytometry.
(§2) In order to determine the binding of the fragments to the membranous CD4, T AN2.01 CD4+ cells were analyzed by indirect immunofluorescent labeling and flow cytometry (FIG. 4).

Assay [2] deals with T2, soluble human recombinant CD4 expressed in baculovirus (human, UniProt P01730 26-396, limits assumed).
T2 construct: Coated on plates for the ELISA and covalently immobilised on the sensor for BIAcore; Only called soluble; also called soluble CD4; CD4 expressed in the baculovirus
As to the kind of experiment: SPR (BIAcore), CD4 immobilised, Exp. 1. The protocol:
(§3) The kinetic parameters of the binding of CD4 to the paratope of the Fab fragments of the 13B8.2 antibody were determined by analysis of the surface plasmon resonance by means of a BIAcore analyzer (BIAcore AB, Uppsala, Sweden).

The target in assay [3] is T1, membranous CD4 (wild human CD4 …). As to the kind of experiment: flow cytometry, T A2.01/CD4 cells, Fab at 10 µg/ml, fluorescein-labeled anti-kappa chain antibody. Here is the method:
as §1, §2

For assay [4], the target named is T2, soluble human recombinant CD4 expressed …. The experiment in a line: SPR (BIAcore), CD4 immobilised, Exp. 3. Here is the method:
as §3

For assay [5] the target is unchanged. As to the kind of experiment: SPR (BIAcore), CD4 immobilised, Exp. 2. Here is the method:
as §3

The target is the same in assay [6]. As to the kind of experiment: SPR (BIAcore), CD4 immobilised. The protocol:
as §3

The target is the same in assay [7]. The experiment in a line: SPR (BIAcore), CD4 immobilised, Exp. 2; Exp. 2. Here is the method: as §3
Assay [8] has as its target T3, biotinylated human recombinant CD4 (Repligen Inc.) (human, UniProt P01730 26-394, limits assumed, biotinylated (sites not given)).
T3 construct: Probe of the Spot membranes, used at 1 µg/ml; also called biotinylated CD4; CD4 probe
The experiment in a line: quantified Spot reactivity, membrane probed with biotinylated CD4. Here is the method: (§4) The antigenic reactivity of the peptides bound to the cellulose membrane was tested with biotinylated CD4 (1 μg/ml) under conditions that led to the production of a blue precipitate for the reactive spots as described in [Bès, 2001b].

Assay [9] concerns the target T3, biotinylated human recombinant CD4 …. The experiment in a line: Spot peptide on cellulose probed with biotinylated CD4. Here is the method:
as §4

Assay [10] has the same target. As to the kind of experiment: Spot peptides on cellulose membrane probed with biotinylated CD4. The protocol: as §4

Substitutions are numbered along the chain they refer to. Numbers in names are those of the source.

B1: wild recombinant chimeric Fab fragment of the 13B8.2 anti-CD4 antibody (Fab, V domains shown)
VH: QVQLKQSGPGLVQPSQSLSITCTVSGFSLTTFGVHWVRQSPGKGLEWLGVIWRSGITDYNVPFMSRLSITKDNSKSQVFFKLNSLQPDDTAIYYCAKNDPGTGFAYWGQGTLVTVSA
VL: DIQMTQSPASLSASVGETVTFTCRASENIYSYLAWYQQKQGKSPQLLVHDAKTLAEGVPSRFSGGGSGTQFSLKINTLQPEDFGTYYCQHHYGNPPTFGGGTKLEIK
notes: Chimeric Fab: murine V domains fused to human CH1-γ1 (Fdγ1) and human Cκ, expressed in baculovirus/Sf9 cells, purified on protein G; also called Fabwild 13B8.2; wild Fab
With B1, the “percent of cells under the marker bar of the histogram” value (shortened to “percent of cells”) in [1] worked out at 44.7%; in [3], 84.8%. The values for the equilibrium dissociation constant (Kd) in assay [2], in assay [4] and in assay [5] were 28.4 nM, 25.6 nM and 33.5 nM, respectively. Besides, the results for the koff in [2], in assay [4] and in [5] were 0.000108 s⁻¹, 6.4e-05 s⁻¹ and 0.000161 s⁻¹, respectively. Moreover, the kon amounted to 3800 M⁻¹ s⁻¹ in assay [2], 2500 M⁻¹ s⁻¹ in [4] and 4800 M⁻¹ s⁻¹ in assay [5].

B2: mutant Fab W52-H of the 13B8.2 antibody (Fab, V domains shown)
VH: B1 VH with W52A
VL: B1 VL
notes: Chimeric Fab with human CH1-γ1 and Cκ; baculovirus/Sf9
For the molecule B2, in [6], the Kd was found to be 3.62 µM, the koff is 0.000859 s⁻¹ and the kon came to 237 M⁻¹ s⁻¹.

B3: mutant Fab Y32-L of the 13B8.2 antibody (Fab, V domains shown)
VH: B1 VH
VL: B1 VL with Y32A
notes: as for B2
B3: in assay [6], the Kd was 8.93 µM and the dissociation rate constant (koff) worked out at 0.000585 s⁻¹.

B4: control mutant Fab V61-H of the 13B8.2 antibody (Fab, V domains shown)
VH: B1 VH with V61A
VL: B1 VL
notes: Chimeric Fab with human CH1-γ1 and Cκ; baculovirus/Sf9; Control position, not a Spot contributor residue; also called V61-Hcontrol
For B4, the “percent of cells” value in assay [1] came to 62.9%. In assay [2], the Kd is 2 nM, the koff turned out to be 0.000172 s⁻¹ and the kon was determined as 86800 M⁻¹ s⁻¹. Also, in [5], the Kd was found to be 2.9 nM, the dissociation rate constant (koff) came to 0.000324 s⁻¹ and the association rate constant (kon) was found to be 112000 M⁻¹ s⁻¹.

B5: mutant Fab W36-H of the 13B8.2 antibody (Fab, V domains shown)
VH: B1 VH with W36A
VL: B1 VL
notes: as for B2
On to B5, for which, in [6], the dissociation constant (Kd) is 0.0154 µM, the off-rate constant (koff) is 0.000271 s⁻¹ and the on-rate (kon) was found to be 17600 M⁻¹ s⁻¹. Besides, the “percent of cells” value in [3] amounted to 65.5%.

B6: mutant Fab F32-H of the 13B8.2 antibody (Fab, V domains shown)
VH: B1 VH with F32A
VL: B1 VL
notes: Chimeric Fab with human CH1-γ1 and Cκ; baculovirus/Sf9; also called F32 mutant Fab
B6: in [2], the dissociation constant Kd was found to be 13.5 nM, the koff is 0.000248 s⁻¹ and the on-rate constant (kon) turned out to be 18300 M⁻¹ s⁻¹. Also, in assay [3], the “percent of cells” value is 82.4%. For the same molecule, in assay [4], the Kd came to 16.9 nM, the koff was 0.00025 s⁻¹ and the association rate constant (kon) stood at 14800 M⁻¹ s⁻¹. In assay [5], the Kd stood at 17 nM, the dissociation rate constant (koff) came to 0.000246 s⁻¹ and the kon worked out at 14400 M⁻¹ s⁻¹.

B7: mutant Fab C92-H of the 13B8.2 antibody (Fab, V domains shown)
VH: B1 VH with C95A
VL: B1 VL
notes: as for B2
B7: in [1], the “percent of cells” value is 76.5%. In [6], the dissociation constant (Kd) is 0.0037 µM, the koff amounted to 0.000358 s⁻¹ and the kon was found to be 96100 M⁻¹ s⁻¹.

B8: mutant Fab H35-H of the 13B8.2 antibody (Fab, V domains shown)
VH: B1 VH with H35A
VL: B1 VL
notes: as for B2
As to B8, in assay [6], the Kd came to 6.28 µM, the dissociation rate constant (koff) amounted to 0.00189 s⁻¹ and the on-rate (kon) was 301 M⁻¹ s⁻¹. The “percent of cells” value in assay [3] amounted to 33.6%.

B9: mutant Fab R53-H of the 13B8.2 antibody (Fab, V domains shown)
VH: B1 VH with R53A
VL: B1 VL
notes: as for B2
Consider B9, for which, in [6], the dissociation constant Kd was 29.2 µM, the koff was 0.0105 s⁻¹ and the kon worked out at 359 M⁻¹ s⁻¹. For the same molecule, in assay [3], the “percent of cells” value came to 43.2%.

B10: mutant Fab R38-H of the 13B8.2 antibody (Fab, V domains shown)
VH: B1 VH with R38A
VL: B1 VL
notes: as for B2
In the case of B10, the “percent of cells” value in assay [1] came to 48%. For the same molecule, in assay [6], the Kd was 0.859 µM, the off-rate constant (koff) is 0.00014 s⁻¹ and the kon is 163 M⁻¹ s⁻¹.

B11: mutant Fab Y36-L of the 13B8.2 antibody (Fab, V domains shown)
VH: B1 VH
VL: B1 VL with Y36A
notes: as for B2
On to B11, for which the “percent of cells” value in [1] is 44.6%. Moreover, in assay [2], the Kd is 25.4 nM, the koff came to 0.000651 s⁻¹ and the kon is 25600 M⁻¹ s⁻¹. For the same molecule, in [7], the equilibrium dissociation constant (Kd) stood at 11.4 nM, the koff was 0.00057 s⁻¹ and the kon stood at 50000 M⁻¹ s⁻¹.

B12: mutant Fab W103-H of the 13B8.2 antibody (Fab, V domains shown)
VH: B1 VH with W107A
VL: B1 VL
notes: as for B2
As to B12, in [6], the Kd amounted to 4.03 µM, the koff came to 0.00112 s⁻¹ and the kon is 278 M⁻¹ s⁻¹. For the same molecule, the “percent of cells” value in assay [3] came out at 6.76%.

B13: mutant Fab F100K-H of the 13B8.2 antibody (Fab, V domains shown)
VH: B1 VH with F104A
VL: B1 VL
notes: as for B2
For B13, in [6], the equilibrium dissociation constant (Kd) came out at 0.845 µM, the koff amounted to 0.000475 s⁻¹ and the on-rate (kon) stood at 562 M⁻¹ s⁻¹.

B14: hexapeptide 49GVIWRS54 of the CDR-H2 region of 13B8.2 (peptide)
peptide: GVIWRS
notes: also called peptide 1; control peptide 1
With B14, the binding result in [8] is listed as “binds”.

B15: alanine analogue of peptide 49GVIWRS54 with Ser54 replaced by Ala (peptide)
peptide: GVIWRA
notes: Spot peptide on cellulose membrane; also called GVIWRA
As for B15, in assay [9], the binding result was “binds”.

B16: alanine analogue of peptide 49GVIWRS54 with Gly49 replaced by Ala (peptide)
peptide: AVIWRS
notes: Spot peptide on cellulose membrane; also called AVIWRS
Regarding B16, the binding result in assay [8] is “binds”.

B17: alanine analogue of peptide 49GVIWRS54 with Val50 replaced by Ala (peptide)
peptide: GAIWRS
notes: Spot peptide on cellulose membrane; also called GAIWRS
With B17, in assay [10], the binding result is “binds”.

B18: alanine analogue of peptide 49GVIWRS54 with Ile51 replaced by Ala (peptide)
peptide: GVAWRS
notes: Spot peptide on cellulose membrane; also called GVAWRS
In the case of B18, the binding result in assay [8] is listed as “binds”.

B19: alanine analogue of peptide 49GVIWRS54 with Arg53 replaced by Ala (peptide)
peptide: GVIWAS
notes: Spot peptide on cellulose membrane; also called GVIWAS
For B19, the binding result in assay [9] is on record as “no binding”.

B20: hexapeptide 52WRSGIT57 of the CDR-H2 region of 13B8.2 (peptide)
peptide: WRSGIT
notes: Spot peptide on cellulose membrane; also called peptide 2
Consider B20, for which, in assay [8], the binding result is given as “binds”.

As to WRSGIA (also called WRSGIA) [alanine analogue of peptide 52WRSGIT57 with Thr57 replaced by Ala (dotted bar T57)], in [8], the binding result is listed as “binds”.

For the molecule ARSGIT (also called ARSGIT) [alanine analogue of peptide 52WRSGIT57 with Trp52 replaced by Ala (dotted bar W52)], the binding result in assay [8] was “binds”.

For WASGIT (also called WASGIT) [alanine analogue of peptide 52WRSGIT57 with Arg53 replaced by Ala (dotted bar R53)], the binding result in assay [10] was “no binding”.

In the case of WRSGAT (also called WRSGAT) [alanine analogue of peptide 52WRSGIT57 with Ile56 replaced by Ala (dotted bar I56)], the binding result in assay [8] was “binds”.

Take WRSAIT (also called WRSAIT) [alanine analogue of peptide 52WRSGIT57 with Gly55 replaced by Ala (dotted bar G55)]: the binding result in assay [8] is listed as “binds”.

WRAGIT (also called WRAGIT) [alanine analogue of peptide 52WRSGIT57 with Ser54 replaced by Ala (dotted bar S54)]: the binding result in assay [8] is listed as “binds”.

Values taken from patent US20050226874A1 (CENTRE NATIONAL DE LA RECHERCHE SCIENTIFIQUE CNRS A …, published 2005).
